Experimental data taken from patent publication US10562969B2, “Substitution monotherapy treatment for HIV-1 infection employing antibody PRO140” (CYTODYN INC., priority 2014, dated 2020).
Where “and” joins values, the source holds several entries; their conditions need not be identical. Equal values may be shown once. Read-outs that look alike come from different tables or passages of the source. Marks after values point to notes of the source that are not given here.

Key:
HIV-1 [1] = conditions: dose-dependent; treatment period of 10-14 days; cited from earlier work
[2] = in vivo; cited from earlier work
[3] = single administration of solution, oral, healthy male volunteers; cited from earlier work
[4] = subjects treated with SC PRO 140; cited from earlier work
[5] = First Phase 2b treatment substitution study, CD4 cell count and safety; conditions: for CD4 cell count: individual subjects
Text: Efficacy assessments at each week included assessment of viral load and CD4 cells count. Safety assessments consisted of physical exam, lab, and adverse event assessments at each treatment and follow-up visit.
The Per Protocol (PP) population was defined as the set of subjects who meet the ITT population requirements, and were not associated with a major protocol violation. This population was identified before the database lock. The PP population will be the primary analysis population for the analysis of primary and secondary endpoints. […] This population will be used for the analysis of safety parameters.

HIV-1 [6] = conditions: cited from earlier work
[7] = in vivo
[8] = cited from earlier work; for mean change in CD4+ cell counts from baseline: 5 mg/kg IV
CCR5 [9] = biological target: T1, CCR5 (Homo sapiens, UniProt P51681); design: endogenous in cells; conditions: for 29 days after treatment with both 5 and 10 mg/kg doses; cited from earlier work
T1 sequence (P51681 whole entry): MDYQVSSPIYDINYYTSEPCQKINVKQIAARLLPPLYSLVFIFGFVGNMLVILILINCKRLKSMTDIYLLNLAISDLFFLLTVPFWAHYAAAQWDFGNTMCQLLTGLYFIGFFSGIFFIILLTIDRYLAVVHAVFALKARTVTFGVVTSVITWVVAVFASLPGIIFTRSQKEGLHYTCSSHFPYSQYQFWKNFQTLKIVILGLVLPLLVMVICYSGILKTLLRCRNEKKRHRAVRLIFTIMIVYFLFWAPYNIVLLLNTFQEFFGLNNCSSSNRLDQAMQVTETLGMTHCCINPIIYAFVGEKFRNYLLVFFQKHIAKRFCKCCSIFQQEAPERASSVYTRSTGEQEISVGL

CCR5 [10] = biological target: T1, CCR5; conditions: cited from earlier work
HIV-1 [11] = conditions: cited from earlier work; remark: listed apart in the source
HIV-1 [12] = conditions: antiviral; cited from earlier work
[13] = cited from earlier work
[14] = cited from earlier work; remark: listed apart in the source
HIV-1 [15] = conditions: based on pharmacodynamic data from prior SC and IV studies
Experimental: The maximal change in HIV-1 viral load from baseline was determined at any point 59 days after initiation of therapy. To allow approximate comparisons between the IV and SC doses, the overall AUC observed for repeat SC doses was conservatively estimated by multiplying the measured AUC0-7d by the number of doses administered. Viral load and AUC data were fit to an Emax equation: E=Emax×AUC/(AUC+AUC50).

R5 HIV-1 [16] = conditions: cited from earlier work
HIV-1 [17] = system: HIV-1
Experimental: All potential study patients were screened and for entry and must be HIV positive with the type of virus, ‘R5’, that uses the coreceptor CCR5 for cell entry and infection.
The first phase 2b TS study, also noted above, was conducted based on the following protocol. The TS study was for the Human Immunodeficiency Virus Type-1 (HIV-1) Infection indication. The TS study involved forty patients, was 14 weeks long, and patients' viral loads were checked weekly. Patients enrolled in the study had undetectable viral load at day one of the study (viral load<50). […] Failure of a patient under study was determined to occur if their viral load (VL) was measured at >400 two times.
Patient enrollment was staggered in this study to facilitate adequate safety monitoring. A lead cohort included 12 subjects. Enrollment of additional 28 subjects was initiated after approval by the independent DSMB.
Subjects who met all eligibility criteria, as per data gathered from Screening Visit were eligible for treatment. […] The first treatment visit took place within 42 days of the screening visit. Eligible subjects received up to 14 treatments, given every week (±3 days) or until virologic failure, whichever occurred first. Visits during the treatment phase commenced on T1, i.e. the date of first treatment, with weekly visits (±3 days) thereafter.
Subjects who experienced virologic failure (defined as two consecutive HIV-1 RNA levels of ≥400 copies/ml separated by at least 3 days) at any time during the treatment phase underwent the virologic failure (VF) visit assessments and then exited the Treatment Phase to enter the follow-up phase of the study.
Subjects who experienced VF were followed up every 4 weeks until the viral suppression was achieved (i.e., plasma HIV-1 RNA levels to return back to <50 copies/mL).
Efficacy Analysis. The main analysis of primary and secondary endpoint will be conducted on the PP population and ITT population will be used for supportive analysis. […] VF is defined as two consecutive HIV-1 RNA levels of ≥400 copies/ml separated by at least 3 days. […] The statistical comparison will be conducted using Wilcoxon rank sum test and the median time to VF for this study will be compared to 30 days.

HIV-1 [18] = conditions: repeated administration; cited from earlier work
HIV-1 [19] = experiment: Second Phase 2b extension treatment substitution study, PRO 140 monotherapy; type: in vivo, human
Experimental: As with the first TS study, only subjects with exclusive CCR5-tropic virus were to be enrolled. However, 6 out of 16 subjects were determined to have dual- or mixed-tropic (D/M) virus when screening blood samples were tested by HIV-1 Co-receptor Tropism by Proviral DNA method or Ultradeep Sequencing with Reflex (Quest Diagnostics), as a retrospective exploratory analysis.

HIV-1 [20] = conditions: cited from earlier work; remark: listed apart in the source
R5 HIV-1 [21] = conditions: cited from earlier work; remark: listed apart in the source
[22] = biological target: CCR5 on circulating lymphocytes (Homo sapiens, UniProt P51681); conditions: single IV injection; cited from earlier work
Chain of CCR5 on circulating lymphocytes (P51681 whole entry): as above

[23] = interim, first cohort of 12 patients

In the case of `CCCCN1C(=O)[C@@H]([C@H](O)C2CCCCC2)NC(=O)C12CCN(Cc1ccc(Oc3ccc(C(=O)O)cc3)cc1)CC2` [GW873140], the “mean reductions in HIV-1 RNA levels” value (HIV-1 [1]) is listed as “about 1 log10”.

For `Cc1nnc(C(C)C)n1[C@H]1C[C@H]2CC[C@@H](C1)N2CC[C@H](NC(=O)C1CCC(F)(F)CC1)c1ccccc1` [UK-427,857], the “clinically significant changes in QTc intervals” value [2] is listed as “none of the above-identified agents induced clinically significant changes in QTc intervals” and the “mean reductions in HIV-1 RNA levels” value (HIV-1 [1]) is listed as “about 1 log10”.

In the case of `CCO/N=C(\c1ccc(Br)cc1)C1CCN(C2(C)CCN(C(=O)c3c(C)cc[n+]([O-])c3C)CC2)CC1` [SCH-C], the “mean reductions in HIV-1 RNA levels” value (HIV-1 [1]) is given as “about 1 log10”.

In the case of `COC[C@@H](c1ccc(C(F)(F)F)cc1)N1CCN(C2(C)CCN(C(=O)c3c(C)ncnc3C)CC2)C[C@@H]1C` [SCH-D], the “clinically significant changes in QTc intervals” value [2] is given as “none of the above-identified agents induced clinically significant changes in QTc intervals” and the “mean reductions in HIV-1 RNA levels” value (HIV-1 [1]) is given as “about 1 log10”.

In the case of `CCCCOCCOc1ccc(-c2ccc3c(c2)/C=C(/C(=O)Nc2ccc([S@@+]([O-])Cc4cncn4CCC)cc2)CCCN3CC(C)C)cc1` [TAK-652], the “safety, tolerability” value [3] is given as “safe and well tolerated”.

B1: PRO 140: humanized IgG4,κ monoclonal antibody (mAb) to the C-C chemokine receptor type 5 (CCR5) (antibody, chains of the INN, looked up, V domains shown)
VH: EVQLVESGGGLVKPGGSLRLSCAASGYTFSNYWIGWVRQAPGKGLEWIGDIYPGGNYIRNNEKFKDKTTLSADTSKNTAYLQMNSLKTEDTAVYYCGSSFGSNYVFAWFTYWGQGTLVTVSS
VL: DIVMTQSPLSLPVTPGEPASISCRSSQRLLSSYGHTYLHWYLQKPGQSPQLLIYEVSNRFSGVPDRFSGSGSGTDFTLKISRVEAEDVGVYYCSQSTHVPLTFGQGTKVEIK
For B1, the “CD4+ cell counts” value [4] is given as “trend towards increased CD4+ cell counts”, the “subjects reporting 'general disorders and administration site conditions' AEs” value ([5]; 13 of 40 subjects) is given as 32.5% and the “subjects reporting 'infections and infestations' AEs” value ([5]; 14 of 40 subjects) is given as 35%. For the same molecule, the “reported AEs deemed either unlikely or not related to study treatment” value ([5]; 63/89 AEs) was 70.7%, the “reported AEs deemed mild in nature” value ([5]; 72/89 AEs) was 80.8% and the “subjects who experienced one or more adverse events” value ([5]; after at least one dose of PRO 140) was 28 of 40 subjects. For the same molecule, the “subjects who experienced an SAE” value ([5]; deemed not related to the study drug) was 1 of 40 subjects, the CD4 cell count ([5]; visit T3) was 585 /mm^3 and 1043 /mm^3 and 760 /mm^3 and 962 /mm^3 and 667 /mm^3 and 755 /mm^3 and 1299 /mm^3 and 677 /mm^3 and 497 /mm^3 and 443 /mm^3 and 625 /mm^3 and 554 /mm^3 and 901 /mm^3 and 858 /mm^3 and 513 /mm^3 and the CD4 cell count ([5]; visit T5) was 585 /mm^3 and 465 /mm^3 and 356 /mm^3 and 994 /mm^3 and 704 /mm^3 and 831 /mm^3 and 642 /mm^3 and 509 /mm^3 and 514 /mm^3 and 859 /mm^3 and 665 /mm^3 and 785 /mm^3 and 646 /mm^3. For the same molecule, the “CD4 cell counts throughout the Treatment Phase” value ([5]; overall review, 40 subjects) was “maintained at stable levels”, the “Development of Resistance in Vitro” value (HIV-1 [6]) was “None at 40 weeks” and the “Viral Cross-Resistance” value (HIV-1 [6]) was “Limited”. For the same molecule, the PK profile [7] was “favorable PK profile similar to that seen in prior clinical studies”, the “PK samples, difference between subjects with and without virologic failure” value [7] was “no significant difference observed” and the “mean change in CD4+ cell counts from baseline” value (from here on “mean change in CD4+ cell counts”) ([8]; day 8) was “+129 cells/μL”. For the same molecule, the “mean change in CD4+ cell counts” value ([8]; day 15) was “+96 cells/μL”, the “mean change in CD4+ cell counts” value ([8]; day 22) was “+83 cells/μL” and the “effect on QTc interval or other electrocardiographic parameters” value ([8]; in vivo, iv) was “no significant effect”. For the same molecule, the “receptor occupancy (reduction in the number of cells detected)” value (CCR5 [9]) was greater than 85%, the “Block Natural Activity of CCR5” value (CCR5 [10]) was “No” and the “mean nadir reduction in viral load” value (HIV-1 [11]; single 5 mg/kg IV dose) was 1.8 log10. For the same molecule, the “mean nadir reduction in viral load” value (HIV-1 [11]; single 10 mg/kg IV dose) was 1.8 log10, the “reduction in viral loads, all PRO 140-treated subjects” value (HIV-1 [11]; single IV infusion 5 or 10 mg/kg) was “more than 10 fold” and the “mean max log10 reductions in viral load” value (HIV-1 [11]; treatment groups (5 and 10 mg/kg IV)) was 1.83 log10. For the same molecule, the IC90 (HIV-1 [12]) was “about 4 μg/ml”, the “mean AUC from time zero to infinity (AUC∞)” value ([13]; 5 mg/kg single IV, serum) was 278 mg·days/L and the “mean AUC from time zero to infinity (AUC∞)” value ([13]; in vivo, iv, 0.5 mg/kg) was 11.1 mg·days/L. For the same molecule, the mean serum half-life ([13]; in vivo, iv, 5 mg/kg) was 84 h, the Tolerability ([14]; in vivo) was “No Toxicity” and the “time serum concentrations are maintained above the IC50 for clinical isolates of HIV-1” value ([14]; single dose of 324 mg) was “at least 2 weeks”. For the same molecule, the “trough concentrations at which maximum virologic suppression is expected” value (HIV-1 [15]) was no less than 5 μg/mL, the “persistence of antiviral effects after the final dose” value (R5 HIV-1 [16]; 324 mg SC doses) was “one week” and the “mean nadir reduction in viral load” value (R5 HIV-1 [16]; 324 mg SC weekly for three weeks) was 1.65 log10. For the same molecule, the “enrolled subjects who completed 12 weeks of PRO 140 Monotherapy without experiencing virologic failure” value (HIV-1 [17]; 22 out of 40 enrolled subjects) was 55%, the “Proportion of Subjects with Virologic Failure within 4 weeks of PRO 140 Monotherapy” value (HIV-1 [17]; CCR5 (N = 24)) was 1/24 and the “Proportion of Subjects with Virologic Failure within 12 weeks of PRO 140 Monotherapy” value (HIV-1 [17]; CCR5 (N = 24)) was 8/24. The “Virologic Failure anytime during Treatment Phase” value (HIV-1 [17]; CCR5- plus Dual/Mixed-tropic Population N = 40) was 18 n, the “Proportion of Subjects with Virologic Failure within 12 weeks of PRO 140 Monotherapy” value (HIV-1 [17]; Total (N = 40)) was 18/40 and the “Proportion of Subjects with Virologic Failure within 4 weeks of PRO 140 Monotherapy” value (HIV-1 [17]; Total (N = 40), 350 mg SC weekly) was 1/40. For the same molecule, the “Virologic Failure” value (HIV-1 [17]; individual subjects reported as Dual/Mixed) was “YES”, the “patients who experienced virologic failure after 11 weeks of monotherapy” value (HIV-1 [17]; [23]) was 7 patients and the “patients who had not experienced virologic failure after 10 weeks of monotherapy” value (HIV-1 [17]; [23]) was “five”. The “patients who passed four weeks of monotherapy (no virologic failure)” value (HIV-1 [17]; [23]) was 100%, the “patients with viral load suppression after 8 weeks of monotherapy” value (HIV-1 [17]; interim, first cohort, excluding two dual-mix virus patients (six of ten)) was 60% and the “virologic failure subjects who achieved viral suppression to <400 and to 'Non Detectable' or <50 HIV-1 RNA copies/ml” value (HIV-1 [17]; once ART reinitiated, seventeen of eighteen subjects) was 94.4%. For the same molecule, the “control of HIV-1 replication” value (HIV-1 [18]) was “prolonged control of HIV-1 replication without viral escape”, the “Proportion of Subjects with Virologic Failure within 24 weeks of PRO 140 Monotherapy” value (HIV-1 [19]; Total (N = 16)) was 4/16 and the “subjects experiencing virologic failure in the Extension study” value (HIV-1 [19]; four out of 16 subjects) was 25%. The “Time on PRO 140 Monotherapy” value (HIV-1 [19]; individual subjects, interim, includes duration from PRO 140 Substitution study) was 27 # of weeks (3×) and 28 # of weeks (2×) and 31 # of weeks and 22 # of weeks (5×) and 24 # of weeks and 29 # of weeks and 26 # of weeks, the “subjects with more than 20 weeks of PRO 140 monotherapy” value (HIV-1 [19]; interim, first TS study plus Extension) was 10 out of 16 subjects and 14 out of 16 subjects and the “duration of complete viral-load suppression” value (HIV-1 [19]; ongoing extension study) was roughly 11 months. The “drops in plasma HIV-1 RNA levels” value (HIV-1 [20]; repetitive weekly administration of 324 mg SC) was “approximately 1.5 log10”, the “drops in plasma HIV-1 RNA levels” value (HIV-1 [20]; single subcutaneous doses of 324 mg) was “approximately 1.0 log10” and the “time mean viral load reductions of greater than 1 login were sustained post-treatment” value (R5 HIV-1 [21]; 5 mg/kg IV group) was 2-3 weeks. For the same molecule, the “development of viral resistance to PRO 140” value (R5 HIV-1 [21]; after single IV dose, followed 58 days) was “no significant development of viral resistance to PRO 140 was observed”, the “viral load reduction on average” value (R5 HIV-1 [21]; single 5 mg/kg IV dose) was 1.83 login and the “duration of significant masking of CCR5 on circulating lymphocytes” value [22] was 2-4 weeks.
